± gives the standard deviation of the averaged measurements.
Test system: ATP
Assay: switch fluorescence ratio, 500 uM ATP over buffer (Cy3 cluster intensity, sum of 5 cycles each) (fold (ratio)); higher = stronger signal-on switching upon ATP binding; sequences stand for … in TCGTCGGCAGCGTCAGATGTGTATAAGAGACAGTTTTTTTTTTTTTTTTTTTTTTTTT…TC
Details: aptamer strand: ATP DNA aptamer (quencher-CACCTGGGGGAGTATTGCGGAGGAAGG + anchor), 100 nM annealed; ATP concentration: 500 uM
Summary of the method: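 Cy3-labelled switching-strand clusters on a modified Illumina MiSeq flow-cell were annealed to 100 nM quencher-labelled ATP aptamer, imaged in selection buffer, then imaged after 15 min with 500 uM ATP at 22 °C. Five buffer/ATP cycles ran, with NaOH stripping and re-annealing between them. The fluorescence ratio is summed target-cycle over summed buffer-cycle Cy3 intensity per cluster, averaged per switch-domain sequence. Clusters outside 100-1000 RFU were excluded.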
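Also: ATP exposure 15 min at 22 °C before imaging.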

| Sequence | switch fluorescence ratio |
| --- | --- |
| ATAACAGAGG | 1.04 ± 0.013 |
| ATCGATAGTG | 1 ± 0.03 |
| TTGAGCAGCT | 1.08 ± 0.085 |
| TGCGGAGGGC | 1.01 ± 0.043 |
| TTCACGGCCC | 1.04 ± 0.013 |
| GGGCAGGTTT | 1.01 ± 0.014 |
| TGAGCTATTG | 0.997 ± 0.015 |
| AGGGGTTGTT | 1.07 ± 0.091 |
| TTATATGTTA | 1.03 ± 0.055 |
| GTGAGGTTTT | 0.985 ± 0.021 |
| TTTTCCAGGT | 1.83 ± 0.42 |
| TGGGGGGCAG | 0.969 ± 0.017 |
| GACTAATGAT | 1.02 ± 0.024 |
| TGAGCGTCGG | 0.968 ± 0.051 |
| TGGGAGGGGT | 1.01 ± 0.014 |
| AAAAGTGGGC | 1.07 ± 0.081 |
| GGTAGAGTAC | 1.02 ± 0.046 |
| GAAGGCCATG | 1.016 ± 0.0075 |
| CGGCTTTGGA | 1.056 ± 0.0019 |
| TTACGTTACG | 1.34 ± 0.047 |
| CCCGGTATTG | 1.017 ± 0.007 |
| AGGGTGATTG | 1.009 ± 0.0077 |
| ATGTAAATGC | 0.995 ± 0.02 |
| CAGACGGATT | 0.996 ± 0.0085 |
| ACAAAGACCT | 1.42 ± 0.031 |

| Sequence | switch fluorescence ratio |
| --- | --- |
| AGGAAGCGGT | 0.958 ± 0.051 |
| ACCCGAGTTT | 1 ± 0.018 |
| GAGGGGCCAG | 0.988 ± 0.027 |
| TGGCCCCTAT | 0.962 ± 0.029 |
| TATCAGTGGT | 0.997 ± 0.026 |
| CAAGTATTGT | 0.999 ± 0.025 |
| GTTTAAACTC | 0.961 ± 0.022 |
| TATTGAATGG | 0.972 ± 0.03 |
| GTTAGCTTAG | 0.99 ± 0.025 |
| GGTGATCGGC | 0.986 ± 0.029 |
| CACAAAAATT | 1.01 ± 0.024 |
| TTTGGTGGTA | 0.984 ± 0.03 |
| TTTAGGCGGG | 1.05 ± 0.044 |
| ACGGGCAACG | 0.9743 ± 0.0065 |
| CTACGAGCTG | 1.06 ± 0.021 |
| GGGATAGATT | 1.028 ± 0.008 |
| CTGAAGGGCT | 1.04 ± 0.017 |
| TTGTTTAAAG | 0.9764 ± 0.0021 |
| GGCATCAGGG | 1.02 ± 0.013 |
| GCTTTGTTTT | 1.12 ± 0.3 |
| ATTAGTCGGT | 0.97109 ± 0.00068 |
| ATGATAGAGG | 0.991 ± 0.025 |
| GGGAAAGATA | 0.988 ± 0.021 |
| TTTTTAAGGC | 1.02 ± 0.032 |
| CGGGGATGTC | 1.05 ± 0.014 |

| Sequence | switch fluorescence ratio |
| --- | --- |
| TGGATAGTGT | 0.998 ± 0.011 |
| CAGACGAGGC | 1.044 ± 0.0037 |
| GGTTAGAACG | 1.02 ± 0.06 |
| GACGGATTTA | 0.988 ± 0.035 |
| TTTTGTTTTA | 1 ± 0.015 |
| TCAAACGGGG | 1 ± 0.045 |
| GCAGGTGGGG | 1.1 ± 0.022 |
| CATAGTTTTT | 1.02 ± 0.025 |
| TTGCGTTTGA | 1.008 ± 0.005 |
| AATGGTTGTG | 1 ± 0.022 |
| CGCATTGTGA | 1.02 ± 0.063 |
| TTTCTAGTCG | 0.971 ± 0.019 |
| CGCTACGGTT | 1.042 ± 0.0016 |
| GCGCTACGGG | 1.01 ± 0.019 |
| TTGGGGAGGG | 1.02 ± 0.05 |
| TGTTGTAGGA | 0.997 ± 0.015 |
| CCGCTAGTGG | 1.196 ± 0.0036 |
| TGGAAATAAG | 1.03 ± 0.047 |
| TATCTTTAGT | 0.989 ± 0.015 |
| AACTAGGGCT | 0.976 ± 0.028 |
| TGGTGAAAGA | 1.01 ± 0.029 |
| TCCAGGACTA | 1.02 ± 0.015 |
| GTATTAATAT | 1.01 ± 0.04 |
| GAGTTTTTTT | 0.987 ± 0.033 |
| TAGAGGGGAT | 0.985 ± 0.027 |

| Sequence | switch fluorescence ratio |
| --- | --- |
| GGTCTTTCG | 0.9794 ± 0.0025 |
| ATGTATACTT | 1.09 ± 0.14 |
| GAAGGCCTAG | 0.9763 ± 0.0042 |
| AAATTCTTCT | 1.04 ± 0.04 |
| GTGGAGACGG | 0.988 ± 0.034 |
| TACTGTGGTC | 1.025 ± 0.0053 |
| AGGTGCTGGT | 0.997 ± 0.033 |
| TCTGGGTGGA | 0.994 ± 0.015 |
| ATAAGGGAGA | 1 ± 0.037 |
| GGGCCAGGTA | 0.985 ± 0.015 |
| CTGGGGAAAC | 1.03 ± 0.064 |
| AGGTTGGAGC | 1 ± 0.021 |
| GTGGATTGGC | 0.982 ± 0.035 |
| GGGATACGCT | 1.03 ± 0.054 |
| TTTTTGGCCG | 1.06 ± 0.034 |
| GGCTGGCGGG | 0.99 ± 0.044 |
| ACTTCACATA | 1.35 ± 0.042 |
| GGTAAAGATA | 0.986 ± 0.019 |
| TTACGTAAGG | 1.23 ± 0.051 |
| ATGTGGGTAC | 1.02 ± 0.026 |
| ATTCAGGCTT | 1.029 ± 0.0019 |
| GGAGGTTGGG | 0.958 ± 0.013 |
| TAGCAGGGGG | 1.03 ± 0.011 |
| CGGGGTAGTC | 0.967 ± 0.07 |
| ATCATTTTTT | 0.9877 ± 0.0061 |

— the supplement of paper PMC10126150
